Reference: US20120315270A1 (UNITED STATES OF AMERICA AS REPRESENTED BY THE, published 2012)
Substitutions are numbered along the chain they refer to. Like-named read-outs stand apart in the source and are kept apart here.

Legend:
[1] = target: RSV F glycoprotein on GFP-expressing RSV (respiratory syncytial virus, UniProt P03420 26-574); assay: cell-based or functional assay
[2] = target: T1, Motavizumab fragment of antigen binding (Fab); assay: SPR (Biacore), motavizumab Fab immobilised, immunogen injected
T1 construct: also called motavizumab Fab

[3] = target: T1, Motavizumab fragment of antigen binding …; assay: as above; remark: listed apart in the source
[4] = target: motavizumab (as used in ITC); assay: ITC
[5] = target: 1lp1b-003 F2Y H15N; assay: co-crystallization
[6] = target: T2, 1lp1b-003_K272E; assay: SPR (Example 7)
T2 construct: also called 1lp1b(K272E)

B1: motavizumab IgG (antibody, V domains shown)
VH: QVTLRESGPALVKPTQTLTLTCTFSGFSLSTAGMSVGWIRQPPGKALEWLADIWWDDKKHYNPSLKDRLTISKDTSKNQVVLKVTNMDPADTATYYCARDMIFNFYFDVWGQGTTVTVSS
VL: DIQMTQSPSTLSASVGDRVTITCSASSRVGYMHWYQQKPGKAPKLLIYDTSKLASGVPSRFSGSGSGTEFTLTISSLQPDDFATYYCFQGSGYPFTFGGGTKVEIK
EC50 (read off the curve), neutralization of GFP-expressing RSV on HEp-2 cells, flow cytometry [1]: ~0.06 nM

B2: 1s2xa_003 (designed binder)
chain: GSPNSRVDELGFNEAERQKILDSNSSLMRNANEVRDKFIQNYATSLKDSNDPQDFLRRVQELRINMQKNFISFDAYYNYLNNLVLASANRASQELSFANDTIKNNDTKKLFSNEIADNFNNFTADEVARISDLVASYLPREYLPPFIDGNMMGVAFQILGIDDFGKKLNEIVQDIGTK
notes: also called Cag-Z
Kd [2]: 3 µM | Kd [3]: 3 µM | -TdS [4]: 9.9 | Kd [4]: 0.147 µM | dH [4]: -19.2

B3: 1s2xa_004 (designed binder)
chain: B2 chain with A98I, I115A
Kd [2]: 3.95 µM | -TdS [4]: 10.7 | Kd [4]: 0.275 µM | dH [4]: -19.6

B4: 1s2xa_002 (designed binder)
chain: GSPNSRVDELGFNEAERQKILDSNSSLMRNANEVRDKFIQNYATSLKDSNDPQDFLRRVQELRINMQKNFISFDAYYNYLNNLVLASANRASQELSFINDTIKNNDTKKLFSNEAADNFNNFTADEVARISDLVASYLPREYLPPFIDGNMMGVAFQILGIDDFGKKLNEIVQDIGTKY
Kd [2]: 3.64 µM | Kd [3]: 3.64 µM

B5: 1s2xa_001 (designed binder)
chain: B4 chain with A91C, I98A, A115I
Kd [2]: 4.75 µM | Kd [3]: 4.75 µM

B6: motavizumab (format in the assay not stated) (antibody, V domains shown)
VH: B1 VH
VL: B1 VL
binding result [5]: binds

B7: motavizumab Fab (Fab, V domains shown)
VH: B1 VH
VL: B1 VL
notes: also called the Fab
binding result [6]: no binding

B8: 2eiaa_001 (designed binder)
chain: APRGYTTWVNTIQTNGLLNEASQNLFGILSVDATSEEMNAFLDVVPGQAGQKQILLDAIDKIADDWDNRHPLPNAPLVAPPQGPIPMTARFIRGLGVPRERQMEPAFDQFRQTYRQWIIEAMSEGIKVMIGKPKAQNIRQGAKEPYPEFVSRLLSQINDEGHPNDIKKLRSNTLTIQNANEECRNAMRHLRPSDTGAEKMYACRDIG
binding result [2]: no binding
